Measurements taken from PMC4196864.

Target: paclitaxel-stabilized microtubules assembled from purified porcine brain tubulin (porcine) (UniProt P02550)
Assay: co-sedimentation

In the case of “6xHis/mCherry-tagged XMAP4 phosphomimetic mutant (T758E/T762E) (natural protein)”, the fold lower band intensity in MT pellets than the T758A/T762A mutant is reported as 1.4 fold.
